{
  "source": "the supplement of paper PMC10567573",
  "parents": {"B1": {"name": "CDKL4 (parent)", "chain": "AVKKFVESEDDPVVKKIALREIRM"}},
  "data": [
    {"variants_of": "B1", "assay": "protein stability index of a GFP-peptide fusion (GPS, HEK-293T) (PSI 1-6); higher = more stable", "conditions": "c terminus: a fixed tail appended", "values": [
      {"variant": "AVKKFVESEDDPVVHKIALREIRM", "note": "[K15H]", "protein stability index": 3.14},
      {"variant": "AVKKFVESEDDPVVYKIALREIRM", "note": "[K15Y]", "protein stability index": 1.81},
      {"variant": "AVKKFVESEDDPVVCKIALREIRM", "note": "[K15C]", "protein stability index": 2.52},
      {"variant": "AVKKFVESEDDPVVSKIALREIRM", "note": "[K15S]", "protein stability index": 2.59},
      {"variant": "AVKKFVESEDDPVVTKIALREIRM", "note": "[K15T]", "protein stability index": 2.66},
      {"variant": "AVKKFVESEDDPVVWKIALREIRM", "note": "[K15W]", "protein stability index": 2.06},
      {"variant": "AVKKFVESEDDPVVRKIALREIRM", "note": "[K15R]", "protein stability index": 2.81},
      {"variant": "AVKKFVESEDDPVVDKIALREIRM", "note": "[K15D]", "protein stability index": 3.59},
      {"variant": "AVKKFVESEDDPVVVKIALREIRM", "note": "[K15V]", "protein stability index": 1.6},
      {"variant": "AVKKFVESEDDPVVGKIALREIRM", "note": "[K15G]", "protein stability index": 2.82},
      {"variant": "AVKKFVESEDDPVVAKIALREIRM", "note": "[K15A]", "protein stability index": 2.26},
      {"variant": "AVKKFVESEDDPVVEKIALREIRM", "note": "[K15E]", "protein stability index": 3.44},
      {"variant": "AVKKFVESEDDPVVQKIALREIRM", "note": "[K15Q]", "protein stability index": 2.86},
      {"variant": "AVKKFVESEDDPVVFKIALREIRM", "note": "[K15F]", "protein stability index": 2.58},
      {"variant": "AVKKFVESEDDPVVIKIALREIRM", "note": "[K15I]", "protein stability index": 2.4},
      {"variant": "AVKKFVESEDDPVVPKIALREIRM", "note": "[K15P]", "protein stability index": 3.46},
      {"variant": "AVKKFVESEDDPVVLKIALREIRM", "note": "[K15L]", "protein stability index": 1.95},
      {"variant": "AVKKFVESEDDPVVMKIALREIRM", "note": "[K15M]", "protein stability index": 1.87},
      {"variant": "AVKKFVESEDDPVVNKIALREIRM", "note": "[K15N]", "protein stability index": 2.88},
      {"variant": "AVKKFVESEDDPVVKKIALREIQM", "note": "[R23Q]", "protein stability index": 3.29},
      {"variant": "AVKKFVESEDDPVVKKIALREIWM", "note": "[R23W]", "protein stability index": 2.03},
      {"variant": "AVKKFVESEDDPVVKKIALREIYM", "note": "[R23Y]", "protein stability index": 2.27},
      {"variant": "AVKKFVESEDDPVVKKIALREICM", "note": "[R23C]", "protein stability index": 2.78},
      {"variant": "AVKKFVESEDDPVVKKIALREISM", "note": "[R23S]", "protein stability index": 2.75},
      {"variant": "AVKKFVESEDDPVVKKIALREIFM", "note": "[R23F]", "protein stability index": 1.93},
      {"variant": "AVKKFVESEDDPVVKKIALREIKM", "note": "[R23K]", "protein stability index": 3.29},
      {"variant": "AVKKFVESEDDPVVKKIALREIDM", "note": "[R23D]", "protein stability index": 3.95},
      {"variant": "AVKKFVESEDDPVVKKIALREILM", "note": "[R23L]", "protein stability index": 1.45},
      {"variant": "AVKKFVESEDDPVVKKIALREIGM", "note": "[R23G]", "protein stability index": 3.16},
      {"variant": "AVKKFVESEDDPVVKKIALREIAM", "note": "[R23A]", "protein stability index": 2.03},
      {"variant": "AVKKFVESEDDPVVKKIALREITM", "note": "[R23T]", "protein stability index": 2.74},
      {"variant": "AVKKFVESEDDPVVKKIALREINM", "note": "[R23N]", "protein stability index": 4.2},
      {"variant": "AVKKFVESEDDPVVKKIALREIVM", "note": "[R23V]", "protein stability index": 1.44},
      {"variant": "AVKKFVESEDDPVVKKIALREIHM", "note": "[R23H]", "protein stability index": 3.14},
      {"variant": "AVKKFVESEDDPVVKKIALREIIM", "note": "[R23I]", "protein stability index": 1.71},
      {"variant": "AVKKFVESEDDPVVKKIALREIPM", "note": "[R23P]", "protein stability index": 3.67},
      {"variant": "AVKKFVESEDDPVVKKIALREIEM", "note": "[R23E]", "protein stability index": 4.24},
      {"variant": "AVKKFVESEDDPVVKKIACREIRM", "note": "[L19C]", "protein stability index": 4.26},
      {"variant": "AVKKFVESEDDPVVKKIAAREIRM", "note": "[L19A]", "protein stability index": 3.87},
      {"variant": "AVKKFVESEDDPVVKKIAPREIRM", "note": "[L19P]", "protein stability index": 4.24},
      {"variant": "AVKKFVESEDDPVVKKIAKREIRM", "note": "[L19K]", "protein stability index": 3.67},
      {"variant": "AVKKFVESEDDPVVKKIAMREIRM", "note": "[L19M]", "protein stability index": 3.16},
      {"variant": "AVKKFVESEDDPVVKKIADREIRM", "note": "[L19D]", "protein stability index": 3.97},
      {"variant": "AVKKFVESEDDPVVKKIASREIRM", "note": "[L19S]", "protein stability index": 4.41},
      {"variant": "AVKKFVESEDDPVVKKIAIREIRM", "note": "[L19I]", "protein stability index": 3.03},
      {"variant": "AVKKFVESEDDPVVKKIATREIRM", "note": "[L19T]", "protein stability index": 4.34},
      {"variant": "AVKKFVESEDDPVVKKIAHREIRM", "note": "[L19H]", "protein stability index": 3.76},
      {"variant": "AVKKFVESEDDPVVKKIAEREIRM", "note": "[L19E]", "protein stability index": 4.76},
      {"variant": "AVKKFVESEDDPVVKKIAVREIRM", "note": "[L19V]", "protein stability index": 3.47},
      {"variant": "AVKKFVESEDDPVVKKIAQREIRM", "note": "[L19Q]", "protein stability index": 4.22},
      {"variant": "AVKKFVESEDDPVVKKIANREIRM", "note": "[L19N]", "protein stability index": 3.86},
      {"variant": "AVKKFVESEDDPVVKKIAFREIRM", "note": "[L19F]", "protein stability index": 2.09},
      {"variant": "AVKKFVESEDDPVVKKIAYREIRM", "note": "[L19Y]", "protein stability index": 3.41},
      {"variant": "AVKKFVESEDDPVVKKIAWREIRM", "note": "[L19W]", "protein stability index": 3.15},
      {"variant": "AVKKFVESEDDPVVKKIARREIRM", "note": "[L19R]", "protein stability index": 2.96},
      {"variant": "AVKKFVESEDDPVVKKIAGREIRM", "note": "[L19G]", "protein stability index": 4.26},
      {"variant": "AVKKFVESEDDPVPKKIALREIRM", "note": "[V14P]", "protein stability index": 3.12},
      {"variant": "AVKKFVESEDDPVTKKIALREIRM", "note": "[V14T]", "protein stability index": 3.26},
      {"variant": "AVKKFVESEDDPVNKKIALREIRM", "note": "[V14N]", "protein stability index": 3.5},
      {"variant": "AVKKFVESEDDPVWKKIALREIRM", "note": "[V14W]", "protein stability index": 2.65},
      {"variant": "AVKKFVESEDDPVYKKIALREIRM", "note": "[V14Y]", "protein stability index": 2.54},
      {"variant": "AVKKFVESEDDPVSKKIALREIRM", "note": "[V14S]", "protein stability index": 2.98},
      {"variant": "AVKKFVESEDDPVRKKIALREIRM", "note": "[V14R]", "protein stability index": 3.44},
      {"variant": "AVKKFVESEDDPVQKKIALREIRM", "note": "[V14Q]", "protein stability index": 3.71},
      {"variant": "AVKKFVESEDDPVVKWIALREIRM", "note": "[K16W]", "protein stability index": 2.05},
      {"variant": "AVKKFVESEDDPVVKYIALREIRM", "note": "[K16Y]", "protein stability index": 2.44},
      {"variant": "AVKKFVESEDDPVVKDIALREIRM", "note": "[K16D]", "protein stability index": 3.48},
      {"variant": "AVKKFVESEDDPVVKNIALREIRM", "note": "[K16N]", "protein stability index": 3.52},
      {"variant": "AVKKFVESEDDPVVKHIALREIRM", "note": "[K16H]", "protein stability index": 3.22},
      {"variant": "AVKKFVESEDDPVVKVIALREIRM", "note": "[K16V]", "protein stability index": 2.27},
      {"variant": "AVKKFVESEDDPVVKLIALREIRM", "note": "[K16L]", "protein stability index": 2.63},
      {"variant": "AVKKFVESEDDPVVKMIALREIRM", "note": "[K16M]", "protein stability index": 3.17},
      {"variant": "AVKKFVESEDDPVVKQIALREIRM", "note": "[K16Q]", "protein stability index": 3.48},
      {"variant": "AVKKFVESEDDPVVKSIALREIRM", "note": "[K16S]", "protein stability index": 3.23},
      {"variant": "AVKKFVESEDDPVVKRIALREIRM", "note": "[K16R]", "protein stability index": 3.18},
      {"variant": "AVKKFVESEDDPVVKIIALREIRM", "note": "[K16I]", "protein stability index": 2.19},
      {"variant": "AVKKFVESEDDPVVKTIALREIRM", "note": "[K16T]", "protein stability index": 3.11},
      {"variant": "AVKKFVESEDDPVVKEIALREIRM", "note": "[K16E]", "protein stability index": 3.95},
      {"variant": "AVKKFVESEDDPVVKFIALREIRM", "note": "[K16F]", "protein stability index": 2.77},
      {"variant": "AVKKFVESEDDPVVKAIALREIRM", "note": "[K16A]", "protein stability index": 3.77},
      {"variant": "AVKKFVESEDDPVVKCIALREIRM", "note": "[K16C]", "protein stability index": 2.92},
      {"variant": "AVKKFVESEDDPVVKPIALREIRM", "note": "[K16P]", "protein stability index": 2.61},
      {"variant": "AVKKFVESEDDPVVKGIALREIRM", "note": "[K16G]", "protein stability index": 3.57},
      {"variant": "AVKKFVESEDDPVVKKIALRNIRM", "note": "[E21N]", "protein stability index": 2.96},
      {"variant": "AVKKFVESEDDPVVKKIALRVIRM", "note": "[E21V]", "protein stability index": 2.46},
      {"variant": "AVKKFVESEDDPVVKKIALRCIRM", "note": "[E21C]", "protein stability index": 2.37},
      {"variant": "AVKKFVESEDDPVVKKIALRIIRM", "note": "[E21I]", "protein stability index": 2.99},
      {"variant": "AVKKFVESEDDPVVKKIALRLIRM", "note": "[E21L]", "protein stability index": 2.69},
      {"variant": "AVKKFVESEDDPVVKKIALRSIRM", "note": "[E21S]", "protein stability index": 2.35},
      {"variant": "AVKKFVESEDDPVVKKIALRGIRM", "note": "[E21G]", "protein stability index": 3.24},
      {"variant": "AVKKFVESEDDPVVKKIALRYIRM", "note": "[E21Y]", "protein stability index": 2.69},
      {"variant": "AVKKFVESEDDPVVKKIALRFIRM", "note": "[E21F]", "protein stability index": 1.7},
      {"variant": "AVKKFVESEDDPVVKKIALRPIRM", "note": "[E21P]", "protein stability index": 2.57},
      {"variant": "AVKKFVESEDDPVVKKIALRAIRM", "note": "[E21A]", "protein stability index": 2.42}
    ]}
  ]
}
